The target of experiment [1] is CH505.TF mutant gp120 M8 (HIV-1). The experiment in a line: direct-binding ELISA (OD450), panel 'CH505.TF gp120 M8'.
Experiment [2] concerns the target HIV-1 Env resurface core protein 3 (RSC3). The experiment in a line: direct-binding ELISA (OD450), panel 'RSC3'.
The target of another experiment is CH505.TF gp120 delta371I. Nature of the experiment: direct-binding ELISA (OD450), panel 'CH505.TF gp120 delta371I'.
The next experiment has as its target RSC3 delta371I. The experiment in a line: ELISA.
Experiment [3] addresses Sm (Smith antigen). Nature of the experiment: AtheNA, Ab 25 ug/ml.
Experiment [4] concerns the target SSA. Nature of the experiment: AtheNA, Ab 25 ug/ml.
Experiment [5] addresses Centromere B (UniProt P07199). The experiment in a line: AtheNA, Ab 25 ug/ml.
Experiment [6] has as its target SSB (UniProt P05455). The experiment in a line: AtheNA, Ab 25 ug/ml.
Experiment [7] addresses RNP (ribonucleoprotein). Nature of the experiment: AtheNA, Ab 25 ug/ml.
Experiment [8] concerns the target Histones. The experiment in a line: AtheNA, Ab 25 ug/ml.
Experiment [9] deals with Scl-70 (UniProt P11387). Nature of the experiment: AtheNA, Ab 25 ug/ml.
Chain of Scl-70 (P11387 whole entry): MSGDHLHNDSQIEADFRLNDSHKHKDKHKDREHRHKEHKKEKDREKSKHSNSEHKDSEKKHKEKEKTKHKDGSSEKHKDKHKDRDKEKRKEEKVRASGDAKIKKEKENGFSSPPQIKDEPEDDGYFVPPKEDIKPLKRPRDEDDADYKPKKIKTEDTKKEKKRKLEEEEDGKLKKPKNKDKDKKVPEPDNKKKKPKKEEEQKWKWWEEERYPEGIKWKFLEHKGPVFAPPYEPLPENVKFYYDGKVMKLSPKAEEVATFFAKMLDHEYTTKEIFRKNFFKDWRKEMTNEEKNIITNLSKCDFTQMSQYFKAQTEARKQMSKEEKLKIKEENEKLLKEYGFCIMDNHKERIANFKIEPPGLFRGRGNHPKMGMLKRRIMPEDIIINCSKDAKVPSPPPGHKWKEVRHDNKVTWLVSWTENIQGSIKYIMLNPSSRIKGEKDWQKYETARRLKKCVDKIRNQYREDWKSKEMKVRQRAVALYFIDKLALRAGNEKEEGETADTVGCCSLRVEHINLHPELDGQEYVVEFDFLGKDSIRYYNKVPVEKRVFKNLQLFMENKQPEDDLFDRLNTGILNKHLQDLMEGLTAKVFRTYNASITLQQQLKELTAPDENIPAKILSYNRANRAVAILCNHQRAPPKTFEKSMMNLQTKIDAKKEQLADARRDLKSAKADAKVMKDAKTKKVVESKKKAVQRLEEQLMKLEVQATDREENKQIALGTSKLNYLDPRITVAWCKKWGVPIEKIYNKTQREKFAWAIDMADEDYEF
The target in experiment [10] is Jo-1 (UniProt P12081). The experiment in a line: AtheNA, Ab 25 ug/ml.
Chain of Jo-1 (P12081 whole entry): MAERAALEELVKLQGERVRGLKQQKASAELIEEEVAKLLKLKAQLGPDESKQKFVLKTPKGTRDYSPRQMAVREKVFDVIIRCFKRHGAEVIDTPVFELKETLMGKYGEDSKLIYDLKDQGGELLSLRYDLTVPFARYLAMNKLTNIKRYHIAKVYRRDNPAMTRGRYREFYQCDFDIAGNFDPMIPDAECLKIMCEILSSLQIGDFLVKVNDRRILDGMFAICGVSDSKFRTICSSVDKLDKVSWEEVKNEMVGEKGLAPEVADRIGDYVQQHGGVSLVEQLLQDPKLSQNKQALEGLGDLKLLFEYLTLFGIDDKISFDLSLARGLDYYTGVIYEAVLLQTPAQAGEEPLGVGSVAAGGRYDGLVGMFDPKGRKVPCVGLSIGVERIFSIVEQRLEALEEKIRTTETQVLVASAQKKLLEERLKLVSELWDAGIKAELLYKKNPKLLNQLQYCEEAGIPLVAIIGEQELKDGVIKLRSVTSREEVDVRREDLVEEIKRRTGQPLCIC
The target of experiment [11] is Sm (Smith antigen). Nature of the experiment: AtheNA, Ab 12.5 ug/ml.
In experiment [12] the target is SSA. The experiment in a line: AtheNA, Ab 12.5 ug/ml.
The target in experiment [13] is Centromere B (UniProt P07199). Nature of the experiment: AtheNA, Ab 12.5 ug/ml.
Chain of Centromere B (P07199 whole entry): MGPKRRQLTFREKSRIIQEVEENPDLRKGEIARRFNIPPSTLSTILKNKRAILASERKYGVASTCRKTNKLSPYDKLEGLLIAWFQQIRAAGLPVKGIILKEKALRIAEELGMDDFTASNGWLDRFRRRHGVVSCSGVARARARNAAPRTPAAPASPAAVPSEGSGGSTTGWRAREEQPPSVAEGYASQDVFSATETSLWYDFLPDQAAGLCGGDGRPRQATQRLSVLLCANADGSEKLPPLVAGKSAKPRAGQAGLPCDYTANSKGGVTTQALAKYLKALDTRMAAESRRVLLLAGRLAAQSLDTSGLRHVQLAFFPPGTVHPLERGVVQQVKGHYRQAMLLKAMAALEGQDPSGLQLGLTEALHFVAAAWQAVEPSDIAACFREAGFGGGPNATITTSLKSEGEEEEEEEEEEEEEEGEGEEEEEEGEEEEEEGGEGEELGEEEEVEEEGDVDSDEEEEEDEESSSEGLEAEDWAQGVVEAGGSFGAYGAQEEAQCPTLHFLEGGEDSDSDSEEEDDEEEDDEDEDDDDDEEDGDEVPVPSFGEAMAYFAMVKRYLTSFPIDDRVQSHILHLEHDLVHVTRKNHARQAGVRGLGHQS
The target in experiment [14] is SSB (UniProt P05455). The experiment in a line: AtheNA, Ab 12.5 ug/ml.
Chain of SSB (P05455 whole entry): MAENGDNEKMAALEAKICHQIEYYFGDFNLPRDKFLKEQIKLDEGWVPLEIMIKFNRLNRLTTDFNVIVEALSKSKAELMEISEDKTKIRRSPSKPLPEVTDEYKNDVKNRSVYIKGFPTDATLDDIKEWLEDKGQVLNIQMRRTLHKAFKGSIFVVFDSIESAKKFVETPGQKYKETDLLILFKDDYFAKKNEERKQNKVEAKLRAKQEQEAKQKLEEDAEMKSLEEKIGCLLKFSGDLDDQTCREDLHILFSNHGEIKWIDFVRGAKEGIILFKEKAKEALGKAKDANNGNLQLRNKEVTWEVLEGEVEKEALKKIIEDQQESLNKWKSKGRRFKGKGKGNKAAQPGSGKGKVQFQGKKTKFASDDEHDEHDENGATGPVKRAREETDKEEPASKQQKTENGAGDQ
The target in experiment [15] is RNP (ribonucleoprotein). Nature of the experiment: AtheNA, Ab 12.5 ug/ml.
Experiment [16] deals with Histones. The experiment in a line: AtheNA, Ab 12.5 ug/ml.
Experiment [17] has as its target Scl-70 (UniProt P11387). Nature of the experiment: AtheNA, Ab 12.5 ug/ml.
The target of experiment [18] is Jo-1 (UniProt P12081). Nature of the experiment: AtheNA, Ab 12.5 ug/ml.
Experiment [19] has as its target Sm (Smith antigen). The experiment in a line: AtheNA, Ab 6.25 ug/ml.
The target in experiment [20] is SSA. The experiment in a line: AtheNA, Ab 6.25 ug/ml.
Experiment [21] concerns the target Centromere B (UniProt P07199). Nature of the experiment: AtheNA, Ab 6.25 ug/ml.
For experiment [22], the target named is SSB (UniProt P05455). Nature of the experiment: AtheNA, Ab 6.25 ug/ml.
Experiment [23] concerns the target RNP (ribonucleoprotein). The experiment in a line: AtheNA, Ab 6.25 ug/ml.
Experiment [24] deals with Histones. Nature of the experiment: AtheNA, Ab 6.25 ug/ml.
The target of experiment [25] is Scl-70 (UniProt P11387). The experiment in a line: AtheNA, Ab 6.25 ug/ml.
The target in experiment [26] is Jo-1 (UniProt P12081). Nature of the experiment: AtheNA, Ab 6.25 ug/ml.
In experiment [27] the target is SSB (UniProt P05455). The experiment in a line: AtheNA, Ab 50 ug/ml.
For experiment [28], the target named is Jo-1 (UniProt P12081). Nature of the experiment: AtheNA, Ab 50 ug/ml.
Experiment [29] concerns the target SSB (UniProt P05455). Nature of the experiment: AtheNA, Ab 50 ug/ml. This is another data set of the same source.
Experiment [30] deals with Jo-1 (UniProt P12081). Nature of the experiment: AtheNA, Ab 50 ug/ml. The source holds these as a separate data set.
For experiment [31], the target named is Sm (Smith antigen). The experiment in a line: AtheNA, Ab 25 ug/ml. This is another data set of the same source.
In experiment [32] the target is SSA. Nature of the experiment: AtheNA, Ab 25 ug/ml. This is another data set of the same source.
In experiment [33] the target is Centromere B (UniProt P07199). Nature of the experiment: AtheNA, Ab 25 ug/ml. This is another data set of the same source.
Experiment [34] addresses SSB (UniProt P05455). The experiment in a line: AtheNA, Ab 25 ug/ml. This is another data set of the same source.
Experiment [35] addresses RNP (ribonucleoprotein). The experiment in a line: AtheNA, Ab 25 ug/ml. This is another data set of the same source.
For experiment [36], the target named is Histones. The experiment in a line: AtheNA, Ab 25 ug/ml. This is another data set of the same source.
For experiment [37], the target named is Scl-70 (UniProt P11387). The experiment in a line: AtheNA, Ab 25 ug/ml. This is another data set of the same source.
The target of experiment [38] is Jo-1 (UniProt P12081). Nature of the experiment: AtheNA, Ab 25 ug/ml. The source holds these as a separate data set.
Experiment [39] has as its target CH505 TF loop D mutant M7 Env (pseudovirus) (HIV-1). Nature of the experiment: cell-based or functional assay.
In experiment [40] the target is CH505 TF loop D mutant M20 Env (pseudovirus) (HIV-1). Nature of the experiment: cell-based or functional assay.
The target in experiment [41] is CH505 TF loop D mutant M8 Env (pseudovirus) (HIV-1). Nature of the experiment: cell-based or functional assay.
Experiment [42] concerns the target CH505 TF loop D mutant M9 Env (pseudovirus) (HIV-1). The experiment in a line: cell-based or functional assay.

For the substance 2G12 (antibody), the concentration giving a half-maximal response (EC50 (read off the curve)) was 0.2 µg/mL in experiment [1], 0.01 µg/mL in experiment [2], 0.2 µg/mL with CH505.TF gp120 delta371I and 0.01 µg/mL with RSC3 delta371I.
On to 4E10 (antibody), for which the AtheNA signal (relative luminescence units) with Sm (Smith antigen) [3] is 2; with SSA [4] it was 33; with Centromere B [5], 3; in the experiment with SSB [6], 227; in the experiment with RNP (ribonucleoprotein) [7] it was 3; with Histones [8], 10. Besides, the AtheNA signal (relative luminescence units) with Scl-70 [9] came out at 1; in the experiment with Jo-1 [10], 160; with Sm (Smith antigen) [11], 3; in the experiment with SSA [12] it was 21; with Centromere B [13], 1; in the experiment with SSB [14], 199. For the same substance, the AtheNA signal (relative luminescence units) in the experiment with RNP (ribonucleoprotein) [15] was found to be 3; with Histones [16], 7; with Scl-70 [17], 0; in the experiment with Jo-1 [18], 131; in the experiment with Sm (Smith antigen) [19] it was 3; with SSA [20], 17. For the same substance, the AtheNA signal (relative luminescence units) came out at 2 with Centromere B [21]; 178 in the experiment with SSB [22]; 3 in the experiment with RNP (ribonucleoprotein) [23]; 6 in the experiment with Histones [24]; 1 with Scl-70 [25]; 113 with Jo-1 [26]. Further, the AtheNA signal (relative luminescence units) in the experiment with SSB [27] is 207; in the experiment with Jo-1 [28], 227; with SSB [29], 263; in the experiment with Jo-1 [30] it was 190; with Sm (Smith antigen) [31], 46; with SSA [32], 81. The AtheNA signal (relative luminescence units) was 9 with Centromere B [33]; 189 with SSB [34]; 20 with RNP (ribonucleoprotein) [35]; 24 in the experiment with Histones [36]; 4 with Scl-70 [37]; 206 in the experiment with Jo-1 [38].
On to CH235.9 N30T (antibody), for which the neutralization IC50, TZM-bl pseudovirus assay in experiment [39] was more than 44 µg/mL; in experiment [40] it was more than 44 µg/mL; in [41], 24.3 µg/mL; in experiment [42] it was more than 44 µg/mL. Besides, the fold increase of neutralization IC50 against CH235.9 in experiment [41] was 37 fold.
Regarding synagis (antibody), the AtheNA signal (relative luminescence units) in the experiment with Sm (Smith antigen) [3] came out at 3; in the experiment with SSA [4], 3; with Centromere B [5] it was 4; with SSB [6], 7; with RNP (ribonucleoprotein) [7] it was 4; in the experiment with Histones [8], 5. Also, the AtheNA signal (relative luminescence units) with Scl-70 [9] worked out at 2; with Jo-1 [10] it was 2; in the experiment with Sm (Smith antigen) [11], 7; with SSA [12] it was 2; with Centromere B [13], 2; with SSB [14] it was 5. The AtheNA signal (relative luminescence units) was 3 with RNP (ribonucleoprotein) [15]; 3 in the experiment with Histones [16]; 3 in the experiment with Scl-70 [17]; 6 with Jo-1 [18]; 2 with Sm (Smith antigen) [19]; 2 in the experiment with SSA [20]. The AtheNA signal (relative luminescence units) with Centromere B [21] was found to be 2; in the experiment with SSB [22], 5; with RNP (ribonucleoprotein) [23], 3; in the experiment with Histones [24] it was 3; with Scl-70 [25] it was 2; in the experiment with Jo-1 [26], 1. In addition, the AtheNA signal (relative luminescence units) in the experiment with Sm (Smith antigen) [31] was determined as 4; with SSA [32], 11; in the experiment with Centromere B [33] it was 2; with SSB [34], 4; in the experiment with RNP (ribonucleoprotein) [35] it was 0; with Histones [36], 2. This substance also showed an AtheNA signal (relative luminescence units) in the experiment with Jo-1 [38] of 4.
